{"source": "paper PMC11406360", "about": "“The enzymatic oxygen sensor cysteamine dioxygenase binds its protein substrates through their N-termini” (The Journal of Biological Chemistry, 2024)", "parents": {"B1": {"name": "native RGS5 peptide (first 14 amino acids of the methionine excised N terminus of RGS5) [human] / 2-aminoethanethiol (cysteamine) dioxygenase (ADO), biotinylated, for SPR [modified: biotin (N terminally biotinylated; 0.2 mM biotin added at … (parent complex)", "chain 1": "CKGLAALPHSCLER", "chain 2": "MPRDNMASLIQRIARQACLTFRGSGGGRGASDRDAASGPEAPMQPGFPENLSKLKSLLTQLRAEDLNIAPRKATLQPLPPNLPPVTYMHIYETDGFSLGVFLLKSGTSIPLHDHPGMHGMLKVLYGTVRISCMDKLDAGGGQRPRALPPEQQFEPPLQPREREAVRPGVLRSRAEYTEASGPCILTPHRDNLHQIDAVEGPAAFLDILAPPYDPDDGRDCHYYRVLEPVRPKEASSSACDLPREVWLLETPQADDFWCEGEPYPGPKVFP"}}, "data": [{"variants_of": "B1", "test": "SPR; parent: 290 nM", "units": {"Kd": "nM"}, "values": [{"variant": "chain 1 P8A", "Kd": 250}, {"variant": "chain 1 C11A", "Kd": 300}, {"variant": "chain 1 L4A", "Kd": 220}, {"variant": "chain 1 H9A", "Kd": 240}, {"variant": "chain 1 R14A", "Kd": 210}, {"variant": "chain 1 L7A", "Kd": 310}, {"variant": "chain 1 S10A", "Kd": 350}, {"variant": "chain 1 L12A", "Kd": 260}, {"variant": "chain 1 E13A", "Kd": 260}]}]}
